The values that follow are results of earlier work, collected in article PMC3625564.

The series deals with Endocan (Homo sapiens) (UniProt Q9NQ30). The experiment in a line: biosensor.
UniProt Q9NQ30, sequence (Q9NQ30 20-184): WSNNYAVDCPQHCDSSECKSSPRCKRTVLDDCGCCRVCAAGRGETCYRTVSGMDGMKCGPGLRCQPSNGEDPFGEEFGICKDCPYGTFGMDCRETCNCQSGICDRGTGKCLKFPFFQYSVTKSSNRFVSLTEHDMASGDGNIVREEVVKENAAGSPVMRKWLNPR

For the substance HGF (from UniProt P14210), the Kd is 4.5 nM.

The Kd is the constant that tells how readily two partners part at equilibrium.
